According to patent US10947296B2, “Fusion protein Slit2D2(C386S)-HSA and use thereof in treatment of fibrotic diseases” (SUZHOU THINKING POWER BIOTECHNOLOGY CO., LTD., priority 2016, dated 2021):

Legend:
[1] = biological target: T1, Robo1 protein (Homo sapiens, UniProt Q9Y6N7); assay: Affinity of the fusion protein to receptor Robo1 determined by SPR; assay type: binding; details: Robo1 bound to CM5 chip
T1 construct: purchased ORIGEN TP327713
Method: The affinity constant between the protein and Robo1 protein was detected by SPR (Surface Plasmon resonance BIAcore 200) method. The Robo1 protein (ORIGEN, Art. No.: TP327713) was bound to a CM5 chip, and the interaction between the fusion protein Slit2D2(C386S)-HSA (prepared in Example 1), Slit2D2-HSA (as disclosed in Patent Application PCT/CN2015/092079), and the receptor protein Robo1 were analyzed. Kinetic measurements were performed according to the method referred by Canziani et al. (2004, Anal. Biochem. 325: 301-307). Furthermore, the affinity of the Slit2N protein (Slit2N is a protein having a molecular weight of about 120 kDa at the N-terminus of the Slit2 protein) to Robo1 protein was also determined by the same method.

[2] = Pharmacokinetic assay, single intravenous administration; assay type: in vivo; details: for Plasma drug concentration: IV 2 mg/kg
Method: Lines and sources: cynomolgus monkeys, Guangxi Xiongsen Primate Laboratory Animal Breeding Development Co., Ltd.
The test substance was administered in a single dose by intravenous injection.
The blood samples were collected and centrifuged to separate plasma (centrifugation conditions: 8000 rpm, 6 minutes, 2-8° C.). The contents of the label included: the subject number of Medicilon Pharmaceutical Technology (Shanghai) Co., Ltd., relevant test days, serial number of animals, date, and sampling time point. The collected plasma samples were stored in a refrigerator at ≤−65° C. before analysis. After analysis, the remaining plasma samples were stored in the refrigerator at ≤−65° C. for subsequent processing.
The biological sample analysis method and analysis of all samples were performed by the analytical laboratory of Medicilon Pharmaceutical Technology (Shanghai) Co., Ltd. Each plate in the sample analysis must contain a standard curve. At least ¾ of the points and not less than 6 non-zero concentration points (without anchor points) constituting the standard curve should meet the acceptance criteria for method validation. Each plate should also contain at least 2 sets and each set comprised at least 3 quality control samples of different concentration levels (high-concentration quality control, intermediate-concentration quality control, and low-concentration quality control).
The pharmacokinetic parameters were calculated with non-compartmental model using Phoenix pharmacokinetic software: AUC0-t, AUC0-∞, Cmax, t1/2, Tmax, C0, Cl, MRT0-∞ and Vss.

[3] = Mean of 4 animals, single IV 2 mg/kg

T1 sequence (Q9Y6N7 26-1651): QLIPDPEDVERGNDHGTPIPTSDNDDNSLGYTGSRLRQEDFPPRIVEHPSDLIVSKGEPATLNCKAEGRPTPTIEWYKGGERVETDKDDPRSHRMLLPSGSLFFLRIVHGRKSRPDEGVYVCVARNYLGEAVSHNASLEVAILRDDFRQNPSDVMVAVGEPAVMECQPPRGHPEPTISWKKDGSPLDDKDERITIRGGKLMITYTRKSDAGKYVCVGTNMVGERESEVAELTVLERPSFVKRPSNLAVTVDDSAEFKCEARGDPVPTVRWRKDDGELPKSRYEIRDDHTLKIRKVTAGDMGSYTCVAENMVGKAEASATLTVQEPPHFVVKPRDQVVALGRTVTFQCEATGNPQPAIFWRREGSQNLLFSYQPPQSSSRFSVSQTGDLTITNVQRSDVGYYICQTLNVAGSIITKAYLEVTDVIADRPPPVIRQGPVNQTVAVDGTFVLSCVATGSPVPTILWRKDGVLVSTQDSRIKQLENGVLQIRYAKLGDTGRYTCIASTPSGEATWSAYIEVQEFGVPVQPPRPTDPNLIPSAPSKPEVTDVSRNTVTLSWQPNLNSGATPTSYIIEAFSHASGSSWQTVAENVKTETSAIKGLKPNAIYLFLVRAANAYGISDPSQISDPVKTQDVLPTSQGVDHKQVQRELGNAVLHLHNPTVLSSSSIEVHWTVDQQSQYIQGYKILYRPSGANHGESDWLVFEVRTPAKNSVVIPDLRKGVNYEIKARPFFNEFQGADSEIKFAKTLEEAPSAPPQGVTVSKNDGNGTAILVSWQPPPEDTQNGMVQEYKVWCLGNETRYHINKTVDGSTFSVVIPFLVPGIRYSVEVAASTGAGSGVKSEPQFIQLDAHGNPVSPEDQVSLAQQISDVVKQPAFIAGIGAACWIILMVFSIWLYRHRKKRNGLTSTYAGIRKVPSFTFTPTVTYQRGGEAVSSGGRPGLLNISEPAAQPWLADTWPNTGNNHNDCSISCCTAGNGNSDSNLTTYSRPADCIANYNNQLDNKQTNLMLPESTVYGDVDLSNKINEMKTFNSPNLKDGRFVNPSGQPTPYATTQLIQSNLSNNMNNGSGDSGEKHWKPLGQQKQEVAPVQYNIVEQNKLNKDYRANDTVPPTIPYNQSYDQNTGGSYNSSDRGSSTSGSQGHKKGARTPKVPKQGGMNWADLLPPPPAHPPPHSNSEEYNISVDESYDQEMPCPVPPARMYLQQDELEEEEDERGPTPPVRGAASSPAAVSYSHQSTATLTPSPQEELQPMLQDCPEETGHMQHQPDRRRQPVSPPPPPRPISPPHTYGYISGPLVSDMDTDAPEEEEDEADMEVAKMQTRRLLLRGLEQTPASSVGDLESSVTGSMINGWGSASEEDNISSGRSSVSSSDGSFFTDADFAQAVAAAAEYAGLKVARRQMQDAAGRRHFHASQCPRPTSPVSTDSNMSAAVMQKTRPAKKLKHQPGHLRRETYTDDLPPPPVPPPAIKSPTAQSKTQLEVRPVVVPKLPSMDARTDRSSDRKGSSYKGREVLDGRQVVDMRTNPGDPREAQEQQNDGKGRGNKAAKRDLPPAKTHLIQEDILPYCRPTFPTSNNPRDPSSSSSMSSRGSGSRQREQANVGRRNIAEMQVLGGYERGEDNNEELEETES

Slit2D2(C386S)-HSA: Fusion protein of the Slit2 D2 domain with C386S mutation linked to human serum albumin; amino acid sequence SEQ ID NO: 3
Ka [1]: 864700 M⁻¹ s⁻¹ | Plasma drug concentration ([2]; 101-Male, day 0.125): 16151.832 ng/mL | Plasma drug concentration ([2]; 101-Male, day 0.25): 15501.583 ng/mL | Plasma drug concentration ([2]; 101-Male, day 0.5): 13047.082 ng/mL | Plasma drug concentration ([2]; 101-Male, day 2): 11326.279 ng/mL | Plasma drug concentration ([2]; 101-Male, day 5): 6773.314 ng/mL | Plasma drug concentration ([2]; 101-Male, day 6): 2717.981 ng/mL | Plasma drug concentration ([2]; 101-Male, day 8): 1577.577 ng/mL | Plasma drug concentration ([2]; 101-Male, day 11): BLQ (Below the minimum limit of quantitation) | Plasma drug concentration ([2]; 101-Male, day 14): BLQ (Below the minimum limit of quantitation) | Plasma drug concentration ([2]; 101-Male, day 17): BLQ (Below the minimum limit of quantitation) | Plasma drug concentration ([2]; 101-Male, day 19): BLQ (Below the minimum limit of quantitation) | Plasma drug concentration ([2]; 101-Male, day 22): BLQ (Below the minimum limit of quantitation) | Plasma drug concentration ([2]; 101-Male, day 26): BLQ (Below the minimum limit of quantitation) | Plasma drug concentration ([2]; 101-Male, day 29): BLQ (Below the minimum limit of quantitation) | Plasma drug concentration ([2]; 101-Male, day 36): BLQ (Below the minimum limit of quantitation) | Plasma drug concentration ([2]; 101-Male, day 43): BLQ (Below the minimum limit of quantitation) | AUC(0-t) ([2]; 101-Male, single IV 2 mg/kg): 45588.03 ng·days/mL | AUC(0-∞) ([2]; 101-Male, single IV 2 mg/kg): 50239.09 ng·days/mL | C0 ([2]; 101-Male, single IV 2 mg/kg): 16829.36 ng/mL | CL ([2]; 101-Male, single IV 2 mg/kg): 1.659 mL/h/kg | Cmax ([2]; 101-Male, single IV 2 mg/kg): 16151.83 ng/mL | MRT(0-∞) ([2]; 101-Male, single IV 2 mg/kg): 68.2 h | Tmax ([2]; 101-Male, single IV 2 mg/kg): 3.12 h | Vss ([2]; 101-Male, single IV 2 mg/kg): 0.11309 L/kg | t1/2 ([2]; 101-Male, single IV 2 mg/kg): 49 h | Plasma drug concentration ([2]; 102-Male, day 0.125): 12629.116 ng/mL | Plasma drug concentration ([2]; 102-Male, day 0.25): 13612.467 ng/mL | Plasma drug concentration ([2]; 102-Male, day 0.5): 13169.983 ng/mL | Plasma drug concentration ([2]; 102-Male, day 2): 8055.924 ng/mL | Plasma drug concentration ([2]; 102-Male, day 5): 4063.179 ng/mL | Plasma drug concentration ([2]; 102-Male, day 6): 2215.633 ng/mL | Plasma drug concentration ([2]; 102-Male, day 8): BLQ (Below the minimum limit of quantitation) | Plasma drug concentration ([2]; 102-Male, day 11): BLQ (Below the minimum limit of quantitation) | Plasma drug concentration ([2]; 102-Male, day 14): BLQ (Below the minimum limit of quantitation) | Plasma drug concentration ([2]; 102-Male, day 17): BLQ (Below the minimum limit of quantitation) | Plasma drug concentration ([2]; 102-Male, day 19): BLQ (Below the minimum limit of quantitation) | Plasma drug concentration ([2]; 102-Male, day 22): BLQ (Below the minimum limit of quantitation) | Plasma drug concentration ([2]; 102-Male, day 26): BLQ (Below the minimum limit of quantitation) | Plasma drug concentration ([2]; 102-Male, day 29): BLQ (Below the minimum limit of quantitation) | Plasma drug concentration ([2]; 102-Male, day 36): BLQ (Below the minimum limit of quantitation) | Plasma drug concentration ([2]; 102-Male, day 43): BLQ (Below the minimum limit of quantitation) | AUC(0-t) ([2]; 102-Male, single IV 2 mg/kg): 30270.94 ng·days/mL | AUC(0-∞) ([2]; 102-Male, single IV 2 mg/kg): 37136.49 ng·days/mL | C0 ([2]; 102-Male, single IV 2 mg/kg): 12629.12 ng/mL | CL ([2]; 102-Male, single IV 2 mg/kg): 2.244 mL/h/kg | Cmax ([2]; 102-Male, single IV 2 mg/kg): 13612.47 ng/mL | MRT(0-∞) ([2]; 102-Male, single IV 2 mg/kg): 67.4 h | Tmax ([2]; 102-Male, single IV 2 mg/kg): 6 h | Vss ([2]; 102-Male, single IV 2 mg/kg): 0.15145 L/kg | t1/2 ([2]; 102-Male, single IV 2 mg/kg): 51.6 h | Plasma drug concentration ([2]; 103-Female, day 0.125): 13162.76 ng/mL | Plasma drug concentration ([2]; 103-Female, day 0.25): 11266.684 ng/mL | Plasma drug concentration ([2]; 103-Female, day 0.5): 9508.594 ng/mL | Plasma drug concentration ([2]; 103-Female, day 2): 5952.269 ng/mL | Plasma drug concentration ([2]; 103-Female, day 5): 3914.939 ng/mL | Plasma drug concentration ([2]; 103-Female, day 6): 2155.966 ng/mL | Plasma drug concentration ([2]; 103-Female, day 8): 731.688 ng/mL | Plasma drug concentration ([2]; 103-Female, day 11): BLQ (Below the minimum limit of quantitation) | Plasma drug concentration ([2]; 103-Female, day 14): BLQ (Below the minimum limit of quantitation) | Plasma drug concentration ([2]; 103-Female, day 17): BLQ (Below the minimum limit of quantitation) | Plasma drug concentration ([2]; 103-Female, day 19): BLQ (Below the minimum limit of quantitation) | Plasma drug concentration ([2]; 103-Female, day 22): BLQ (Below the minimum limit of quantitation) | Plasma drug concentration ([2]; 103-Female, day 26): BLQ (Below the minimum limit of quantitation) | Plasma drug concentration ([2]; 103-Female, day 29): BLQ (Below the minimum limit of quantitation) | Plasma drug concentration ([2]; 103-Female, day 36): BLQ (Below the minimum limit of quantitation) | Plasma drug concentration ([2]; 103-Female, day 43): BLQ (Below the minimum limit of quantitation) | AUC(0-t) ([2]; 103-Female, single IV 2 mg/kg): 28598.53 ng·days/mL | AUC(0-∞) ([2]; 103-Female, single IV 2 mg/kg): 30524.24 ng·days/mL | C0 ([2]; 103-Female, single IV 2 mg/kg): 15377.93 ng/mL | CL ([2]; 103-Female, single IV 2 mg/kg): 2.73 mL/h/kg | Cmax ([2]; 103-Female, single IV 2 mg/kg): 13162.76 ng/mL | MRT(0-∞) ([2]; 103-Female, single IV 2 mg/kg): 61.9 h | Tmax ([2]; 103-Female, single IV 2 mg/kg): 3.12 h | Vss ([2]; 103-Female, single IV 2 mg/kg): 0.16888 L/kg | t1/2 ([2]; 103-Female, single IV 2 mg/kg): 43.7 h | Plasma drug concentration ([2]; 104-Female, day 0.125): 13541.873 ng/mL | Plasma drug concentration ([2]; 104-Female, day 0.25): 12289.107 ng/mL | Plasma drug concentration ([2]; 104-Female, day 0.5): 10597.55 ng/mL | Plasma drug concentration ([2]; 104-Female, day 2): 8296.324 ng/mL | Plasma drug concentration ([2]; 104-Female, day 5): 3663.777 ng/mL | Plasma drug concentration ([2]; 104-Female, day 6): 1433.272 ng/mL | Plasma drug concentration ([2]; 104-Female, day 8): BLQ (Below the minimum limit of quantitation) | Plasma drug concentration ([2]; 104-Female, day 11): BLQ (Below the minimum limit of quantitation) | Plasma drug concentration ([2]; 104-Female, day 14): BLQ (Below the minimum limit of quantitation) | Plasma drug concentration ([2]; 104-Female, day 17): BLQ (Below the minimum limit of quantitation) | Plasma drug concentration ([2]; 104-Female, day 19): BLQ (Below the minimum limit of quantitation) | Plasma drug concentration ([2]; 104-Female, day 22): BLQ (Below the minimum limit of quantitation) | Plasma drug concentration ([2]; 104-Female, day 26): BLQ (Below the minimum limit of quantitation) | Plasma drug concentration ([2]; 104-Female, day 29): BLQ (Below the minimum limit of quantitation) | Plasma drug concentration ([2]; 104-Female, day 36): BLQ (Below the minimum limit of quantitation) | Plasma drug concentration ([2]; 104-Female, day 43): BLQ (Below the minimum limit of quantitation) | AUC(0-t) ([2]; 104-Female, single IV 2 mg/kg): 28034.90 ng·days/mL | AUC(0-∞) ([2]; 104-Female, single IV 2 mg/kg): 31263.33 ng·days/mL | C0 ([2]; 104-Female, single IV 2 mg/kg): 14922.35 ng/mL | CL ([2]; 104-Female, single IV 2 mg/kg): 2.665 mL/h/kg | Cmax ([2]; 104-Female, single IV 2 mg/kg): 13541.87 ng/mL | MRT(0-∞) ([2]; 104-Female, single IV 2 mg/kg): 50.4 h | Tmax ([2]; 104-Female, single IV 2 mg/kg): 3.12 h | Vss ([2]; 104-Female, single IV 2 mg/kg): 0.13446 L/kg | t1/2 ([2]; 104-Female, single IV 2 mg/kg): 37.4 h | AUC(0-t) [2, 3]: 33123.10 ng·days/mL | AUC(0-∞) [2, 3]: 37290.79 ng·days/mL | C0 [2, 3]: 14939.69 ng/mL | CL [2, 3]: 2.325 mL/h/kg | Cmax [2, 3]: 14117.23 ng/mL | MRT(0-∞) [2, 3]: 61.9 h | Tmax [2, 3]: 3.84 h | Vss [2, 3]: 0.14197 L/kg | t1/2 [2, 3]: 45.4 h | Plasma drug concentration ([2]; Mean, day 0.125): 13871.40 ng/mL | Plasma drug concentration ([2]; Mean, day 0.25): 13167.46 ng/mL | Plasma drug concentration ([2]; Mean, day 0.5): 11580.80 ng/mL | Plasma drug concentration ([2]; Mean, day 2): 8407.70 ng/mL | Plasma drug concentration ([2]; Mean, day 5): 4603.80 ng/mL | Plasma drug concentration ([2]; Mean, day 6): 2130.71 ng/mL | Plasma drug concentration ([2]; Mean, day 8): 1154.63 ng/mL | Observation during the test (morbidity, damage, death rate, food and water supply) ([2]; single IV 2 mg/kg): No abnormal findings | ratio of AUC(0-∞) between male and female ([2]; single IV 2 mg/kg): 1.41 | ratio of Cmax between male and female ([2]; single IV 2 mg/kg): 1.11 | ratio of t1/2 between male and female ([2]; single IV 2 mg/kg): 1.24
